Test results published in patent US20150232562A1 (Ablynx, published 2015).
Residue numbers refer to the chain shown, from its start.

B1: 5G4 (VHH)
VHH: EVQLVESGGGLVQPGGSLTLSCAGSGFIFDDYAMSWVRQAPGKGLEWVSSINWSGSHRNYADSVKGRFTISRDNAKKTLYLQMNSLKSEDTAVYYCATGWQSTTKNQNYWGQGTQVTVSS
notes: C-term myc-His6 tag
B2: 15G7 (VHH)
VHH: B1 VHH with T19R, G24A, S50A, S56T, A75N, L79V, N108G
notes: C-term myc-His6 tag
B3: 15B7 (VHH)
VHH: B1 VHH with T19K, G24A, S50A, L79V, K87Q, A97G, N106S, N108G
notes: C-term myc-His6 tag
B4: 2E2 (VHH)
VHH: EVQLVESGGGLVQPGGSLRLSCVASGFSLDDYGMTWVRQAPGKGLEWVSSINWSGTHTDYADSVKGRFTISRDNAKNTLFLQMNSLTPEDTAVYYCNQGWKIIPTDRRGHGTQVTVSS
notes: C-term myc-His6 tag
B5: 2H3 (VHH)
VHH: B4 VHH
notes: C-term myc-His6 tag
B6: 17E4 (VHH)
VHH: B4 VHH with T69V, T87S
notes: C-term myc-His6 tag
B7: 17H4 (VHH)
VHH: B4 VHH with D30I, D31N, G33A, Q82H, S85N, T87S, N97G, I103H, T105A, R108G
notes: C-term myc-His6 tag
B8: 29H2 (VHH)
VHH: B4 VHH with S85N
notes: C-term myc-His6 tag
B9: 15G8 (VHH)
VHH: B4 VHH with R19K, S54N, D62Y, D90N, I103L, T105A, D106E
notes: C-term myc-His6 tag
B10: 13B10 (VHH)
VHH: B4 VHH with L45F, T87S, I103L, D106N, R108G, G109S
notes: C-term myc-His6 tag
B11: 2E3 (VHH)
VHH: B4 VHH with T87S, I103L, D106N, R108G, G109S
notes: C-term myc-His6 tag
B12: 13D11 (VHH)
VHH: B4 VHH with Q13H, A24G, Q39R, T87N, N97G, I103V, D106N, R107P
notes: C-term myc-His6 tag
B13: 17H3 (VHH)
VHH: B4 VHH with V5M, T87R, P88S, I103V, R108G
notes: C-term myc-His6 tag
B14: 17D2 (VHH)
VHH: B4 VHH with T87R, P88S, I103V, R108G, G109S
notes: C-term myc-His6 tag
B15: 15D1 (VHH)
VHH: B4 VHH with G33A, T87N, I102V, I103W, R108G, G109T
notes: C-term myc-His6 tag
B16: 17B8 (VHH)
VHH: B4 VHH with I103L, T105A, D106E
notes: C-term myc-His6 tag
B17: 38C6 (VHH)
VHH: B4 VHH with A24G, G33A, T87S, I103R, D106I, R107P, R108M
notes: C-term myc-His6 tag
B18: 17A2 (VHH)
VHH: B4 VHH with G33A, T87S, Q98K, I102V, I103W, R108G, G109T
notes: C-term myc-His6 tag
B19: 13D2 (VHH)
VHH: B4 VHH with S85N, T87R, P88S, Y95S, I103V, R108G
notes: C-term myc-His6 tag
B20: 15C5 (VHH)
VHH: B4 VHH with R19K, S54N, G55V, D62Y
notes: C-term myc-His6 tag
B21: 15C11 (VHH)
VHH: B4 VHH with I103L, T105A, D106E, Q113P
notes: C-term myc-His6 tag
B22: 27G8 (VHH)
VHH: B4 VHH with I103L, T105A, D106E
notes: C-term myc-His6 tag
B23: 2H4 (VHH)
VHH: EVQLVESGGSLVQPGGSLRLSCAASGFTFDDYAMTWVRQAPGKGLEWVSSINWSGTHTDYTDSVKGRFTISRNNANNTLYLQMNSLKSEDTAVYYCAKNWGDAGTTWFEKSGSAGQGTQVTVSS
notes: C-term myc-His6 tag
B24: 30H9 (VHH)
VHH: B23 VHH
notes: C-term myc-His6 tag
B25: 17E2 (VHH)
VHH: B23 VHH with Q13P, A33G, T35S
notes: C-term myc-His6 tag
B26: 17D8 (VHH)
VHH: B23 VHH with Q13P, A24V, T35S, T78M, G101R
notes: C-term myc-His6 tag
B27: 17G8 (VHH)
VHH: B23 VHH with Q13P, T35S, D59G
notes: C-term myc-His6 tag
B28: 39C1 (VHH)
VHH: B23 VHH with Q13P, A33G, T35S
notes: C-term myc-His6 tag
B29: 15G1 (VHH)
VHH: B23 VHH with Q13P, T35S, G101R
notes: C-term myc-His6 tag
B30: 17E7 (VHH)
VHH: B23 VHH with T35S, A40V, T61A, G101R
notes: C-term myc-His6 tag
B31: 13D8 (VHH)
VHH: B23 VHH with P41S
notes: C-term myc-His6 tag
B32: 2D4 (VHH)
VHH: B23 VHH with T61A, E89D, Q116P
notes: C-term myc-His6 tag
B33: 27G2 (VHH)
VHH: B23 VHH with A40T, E89D, Q116P
notes: C-term myc-His6 tag
B34: 2F5 (VHH)
VHH: B23 VHH with Q13P, T35S
notes: C-term myc-His6 tag
B35: 17E10 (VHH)
VHH: B23 VHH with Y60C
notes: C-term myc-His6 tag
B36: 30E10 (VHH)
VHH: B23 VHH with E1K, Q13P
notes: C-term myc-His6 tag
B37: 29H1 (VHH)
VHH: B23 VHH with Q13P, T35S, D59G
notes: C-term myc-His6 tag
B38: 15F9 (VHH)
VHH: B23 VHH with D62G, E89D
notes: C-term myc-His6 tag
B39: 27B1 (VHH)
VHH: B23 VHH with T35S, V48I, T61A, S85N, S88F, G101R
notes: C-term myc-His6 tag
B40: 27D4 (VHH)
VHH: B23 VHH with P41S, T61A
notes: C-term myc-His6 tag
B41: 2F3 (VHH)
VHH: B23 VHH with D62G, E89D, Q116P
notes: C-term myc-His6 tag
B42: 17E3 (VHH)
VHH: EVQLVESGGGLVQAGGSLRLSCVASKMTFMRYTMGWYRQAPGKQRDLVASIDSSGGTNYADSVKGRFTISRDNAKNTVYLEMNSLTPEDTAVYYCNQGWKIVPTDRTGHGTQVTVSS
notes: C-term myc-His6 tag
B43: 118N121_A1_4_OK/1-127 (VHH)
VHH: EVQLVESGGGFVQTGGSPRLSCAASGRSFSEYAAAWFRQSPGKERDLVAGIMWDGRSLFYADSVKGRFTISRDNAKNTLHLQMNSLKPEDTAVYYCAYHKTPYTTLELNRPHAFGSWGQGTQVTVSS
notes: C-term myc-His6 tag
B44: 2B4 (VHH)
VHH: B4 VHH with A24G, G33A, T87S, I103R, D106I, R107P, R108M
notes: C-term myc-His6 tag
B45: 2C1 (VHH)
VHH: B4 VHH with A61T
notes: C-term myc-His6 tag
B46: 2B1 (VHH)
VHH: B23 VHH with E89D, Q116P
notes: C-term myc-His6 tag

biological target: T1, Epidermal Growth Factor Receptor 2 (HER2) (human, UniProt P04626 23-1255); assay: FMAT competition on SKBR3 cells, periplasmic extract
T1 construct: whole, on cells; the cell line is named under assay; also called ErbB-2; ERBB2

| Binder | % blocking of Herceptin binding |
| --- | --- |
| B1 | > 90% |
| B2 | > 90% |
| B3 | > 90% |
| B4 | > 90% |
| B5 | > 90% |
| B6 | > 90% |
| B7 | > 90% |
| B8 | > 90% |
| B9 | > 90% |
| B10 | > 90% |
| B11 | > 90% |
| B12 | > 90% |
| B13 | > 90% |
| B14 | > 90% |
| B15 | > 90% |
| B16 | > 90% |
| B17 | > 90% |
| B18 | > 90% |
| B19 | > 90% |
| B20 | > 90% |
| B21 | > 90% |
| B22 | > 90% |

| Binder | % blocking of Herceptin binding |
| --- | --- |
| B23 | > 90% |
| B24 | > 90% |
| B25 | > 90% |
| B26 | > 90% |
| B27 | > 90% |
| B28 | > 90% |
| B29 | > 90% |
| B30 | > 90% |
| B31 | > 90% |
| B32 | > 90% |
| B33 | > 90% |
| B34 | > 90% |
| B35 | > 90% |
| B36 | > 90% |
| B37 | > 90% |
| B38 | > 90% |
| B39 | > 90% |
| B40 | > 90% |
| B41 | > 90% |
| B42 | > 90% |
| B43 | > 90% |

biological target: T2, recombinant human ErbB2/Fc chimera (human, UniProt P04626 23-652); assay: SPR (Biacore 3000), periplasmic extract over immobilised rhErbB2-Fc
T2 construct: bought from R&D Systems; also called rhErbB2-Fc; rhErb2-Fc; Fc part of the bought chimera not given; not described

| Binder | koff |
| --- | --- |
| B44 | 0.00277 s⁻¹ |
| B45 | 0.00118 s⁻¹ |
| B23 | 0.00161 s⁻¹ |
| B46 | 0.00155 s⁻¹ |
| B32 | 0.00165 s⁻¹ |
| B34 | 0.00157 s⁻¹ |
| B41 | 0.00153 s⁻¹ |
